Measurements as given in patent US20180155451A1 (published 2018).

T1: FcγRIIb extracellular domain with C-terminal His tag (human, UniProt P31994 43-217)
T1 construct: extracellular domain; also called FcgRIIb; 2b; not shown: His tag at the C terminus
T1 sequence (looked up): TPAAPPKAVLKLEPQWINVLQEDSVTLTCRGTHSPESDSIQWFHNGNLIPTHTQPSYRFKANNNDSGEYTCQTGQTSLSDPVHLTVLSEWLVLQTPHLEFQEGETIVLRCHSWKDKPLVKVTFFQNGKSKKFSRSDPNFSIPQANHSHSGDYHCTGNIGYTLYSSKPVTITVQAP

T2: FcγRIIb extracellular domain with C-terminal His tag (human, UniProt P31994 43-217)
T2 construct: extracellular domain; Soluble receptor expressed in FreeStyle293 cells, used as analyte in Biacore; also called FcgRIIb; CD32B; not shown: His tag at the C terminus
T2 sequence (looked up): T1 sequence (looked up)

B1: GpH7-A5/GpH7-B3 variant S298_08L/GpL16-k0 (antibody, human IgG1, kappa)
heavy 1: not shown
heavy 2: not shown
light: DIVMTQSPLSLPVTPGEPASISCQASESLVHSNRNTYLHWYLQKPGQSPQLLIYKVSNRFSGVPDRFSGSGSGTDFTLKISRVEAEDVGVYYCSQNTHVPPTFGQGTKVEIERTVAAPSVFIFPPSDEQLKSGTASVVCLLNNFYPREAKVQWKVDNALQSGNSQESVTEQDSKDSTYSLSSTLTLSKADYEKHKVYACEVTHQGLSSPVTKSFNRGEC
notes: Heterodimerized anti-glypican-3 IgG1; the substitution stands in the GpH7-B3 chain only; also called He Ab
B2: GpH7-A5/GpH7-B3 variant Y300_19Q/GpL16-k0 (antibody, human IgG1, kappa)
heavy 1: not shown
heavy 2: not shown
light: B1 light
notes: as for B1
B3: GpH7-A5/GpH7-B3 variant P271_06M/GpL16-k0 (antibody, human IgG1, kappa)
heavy 1: not shown
heavy 2: not shown
light: B1 light
notes: Heterodimerized anti-glypican-3 IgG1; substitution in only one H chain; also called P271M; He Ab
B4: GpH7-A5/GpH7-B3 variant P271_07I/GpL16-k0 (antibody, human IgG1, kappa)
heavy 1: not shown
heavy 2: not shown
light: B1 light
notes: Heterodimerized anti-glypican-3 IgG1; substitution in only one H chain; also called P271I; He Ab
B5: GpH7-A5/GpH7-B3 variant P271_11K/GpL16-k0 (antibody, human IgG1, kappa)
heavy 1: not shown
heavy 2: not shown
light: B1 light
notes: Heterodimerized anti-glypican-3 IgG1; substitution in only one H chain; also called P271K; He Ab
B6: GpH7-A5/GpH7-B3 variant P271_12R/GpL16-k0 (antibody, human IgG1, kappa)
heavy 1: not shown
heavy 2: not shown
light: B1 light
notes: Heterodimerized anti-glypican-3 IgG1; substitution in only one H chain; also called P271R; He Ab
B7: GpH7-A5/GpH7-B3 variant P271_13S/GpL16-k0 (antibody, human IgG1, kappa)
heavy 1: not shown
heavy 2: not shown
light: B1 light
notes: Heterodimerized anti-glypican-3 IgG1; substitution in only one H chain; also called P271S; He Ab
B8: GpH7-A5/GpH7-B3 variant P271_14T/GpL16-k0 (antibody, human IgG1, kappa)
heavy 1: not shown
heavy 2: not shown
light: B1 light
notes: Heterodimerized anti-glypican-3 IgG1; substitution in only one H chain; also called P271T; He Ab
B9: GpH7-A5/GpH7-B3 variant P271_15Y/GpL16-k0 (antibody, human IgG1, kappa)
heavy 1: not shown
heavy 2: not shown
light: B1 light
notes: Heterodimerized anti-glypican-3 IgG1; substitution in only one H chain; also called P271Y; He Ab
B10: GpH7-A5/GpH7-B3 variant P271_16H/GpL16-k0 (antibody, human IgG1, kappa)
heavy 1: not shown
heavy 2: not shown
light: B1 light
notes: Heterodimerized anti-glypican-3 IgG1; substitution in only one H chain; also called P271H; He Ab
B11: GpH7-A5/GpH7-B3 variant P271_18N/GpL16-k0 (antibody, human IgG1, kappa)
heavy 1: not shown
heavy 2: not shown
light: B1 light
notes: Heterodimerized anti-glypican-3 IgG1; substitution in only one H chain; also called P271N; He Ab
B12: GpH7-A5/GpH7-B3 variant P271_19Q/GpL16-k0 (antibody, human IgG1, kappa)
heavy 1: not shown
heavy 2: not shown
light: B1 light
notes: Heterodimerized anti-glypican-3 IgG1; substitution in only one H chain; also called P271Q; He Ab
B13: GpH7-A5/GpH7-B3 variant P271_20W/GpL16-k0 (antibody, human IgG1, kappa)
heavy 1: not shown
heavy 2: not shown
light: B1 light
notes: Heterodimerized anti-glypican-3 IgG1; substitution in only one H chain; also called P271W; He Ab
B14: GpH7-A5/GpH7-B3 variant Q295_02A/GpL16-k0 (antibody, human IgG1, kappa)
heavy 1: not shown
heavy 2: not shown
light: B1 light
notes: Heterodimerized anti-glypican-3 IgG1; substitution in only one H chain; also called Q295A; He Ab
B15: GpH7-A5/GpH7-B3 variant Q295_03V/GpL16-k0 (antibody, human IgG1, kappa)
heavy 1: not shown
heavy 2: not shown
light: B1 light
notes: Heterodimerized anti-glypican-3 IgG1; substitution in only one H chain; also called Q295V; He Ab
B16: GpH7-A5/GpH7-B3 variant Q295_04F/GpL16-k0 (antibody, human IgG1, kappa)
heavy 1: not shown
heavy 2: not shown
light: B1 light
notes: Heterodimerized anti-glypican-3 IgG1; substitution in only one H chain; also called Q295F; He Ab
B17: GpH7-A5/GpH7-B3 variant Q295_05P/GpL16-k0 (antibody, human IgG1, kappa)
heavy 1: not shown
heavy 2: not shown
light: B1 light
notes: Heterodimerized anti-glypican-3 IgG1; substitution in only one H chain; also called Q295P; He Ab
B18: GpH7-A5/GpH7-B3 variant Q295_06M/GpL16-k0 (antibody, human IgG1, kappa)
heavy 1: not shown
heavy 2: not shown
light: B1 light
notes: Heterodimerized anti-glypican-3 IgG1; substitution in only one H chain; also called Q295M; He Ab
B19: GpH7-A5/GpH7-B3 variant Q295_07I/GpL16-k0 (antibody, human IgG1, kappa)
heavy 1: not shown
heavy 2: not shown
light: B1 light
notes: Heterodimerized anti-glypican-3 IgG1; substitution in only one H chain; also called Q295I; He Ab

biological target: T1, FcγRIIb extracellular domain with …; assay: SPR (Biacore), antibody captured on antigen peptide chip, FcγR as analyte; relative binding amount
Procedure: (§1) Analysis of interaction between objective antibody and the FcγR was carried out using Biacore T100 (GE Healthcare). HBS-EP+ (GE Healthcare) was used as the running buffer, and the measurement temperature was set to 25° C. Chips produced by immobilizing the antigen peptide by the amine coupling method to a Series S Sencor Chip CM5 (GE Healthcare), or alternatively, chips produced by allowing preliminarily biotinylated antigen peptides to interact with and immobilize onto a Series S Sensor Chip SA (certified) (GE Healthcare) were used. Antibodies of interest were captured onto an antigen peptide-immobilized chip, and allowed to interact to each FcγR diluted with running buffer. To regenerate and repeatedly use the chip, the antibodies captured on the chip were washed off by reacting 10 mM glycine-HCl, pH 1.5.
(§2) The FcγR-binding activity of each antibody was assessed primarily using as an indicator the FcγR-binding activity and dissociation constant for FcγR.

Row | Binder | He/Con_2b
1 | B1 | 108 % of GpH7-A5/GpH7-B3/GpL16-k0 (=100)
2 | B2 | 108 % of GpH7-A5/GpH7-B3/GpL16-k0 (=100)

biological target: T3, FcγRIIIa extracellular domain with C-terminal His tag (human, UniProt P08637 17-208); assay: as above
T3 construct: extracellular domain; also called FcgRIIIa; 3a; not shown: His tag at the C terminus
Procedure: as §1, §2

T3 sequence (P08637 17-208): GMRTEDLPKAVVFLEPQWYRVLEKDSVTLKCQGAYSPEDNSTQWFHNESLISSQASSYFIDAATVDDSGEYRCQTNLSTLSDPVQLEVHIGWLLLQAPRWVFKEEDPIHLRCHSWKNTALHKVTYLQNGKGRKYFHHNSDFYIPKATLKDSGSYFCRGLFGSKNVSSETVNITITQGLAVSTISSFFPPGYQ

Row | Binder | He/Con_3a
3 | B1 | 73.5 % of GpH7-A5/GpH7-B3/GpL16-k0 (=100)
4 | B2 | 96.3 % of GpH7-A5/GpH7-B3/GpL16-k0 (=100)

biological target: T4, FcγRIa extracellular domain with C-terminal His tag (human, UniProt P12314 16-292); assay: SPR (Biacore), antibody captured via antigen peptide, FcγR as analyte; binding relative to GpH7-A5/GpH7-B3/GpL16-k0 = 100
T4 construct: extracellular domain; Soluble receptor expressed in FreeStyle293 cells, used as analyte in Biacore; also called FcgRI; CD64; not shown: His tag at the C terminus
T4 sequence (P12314 16-292): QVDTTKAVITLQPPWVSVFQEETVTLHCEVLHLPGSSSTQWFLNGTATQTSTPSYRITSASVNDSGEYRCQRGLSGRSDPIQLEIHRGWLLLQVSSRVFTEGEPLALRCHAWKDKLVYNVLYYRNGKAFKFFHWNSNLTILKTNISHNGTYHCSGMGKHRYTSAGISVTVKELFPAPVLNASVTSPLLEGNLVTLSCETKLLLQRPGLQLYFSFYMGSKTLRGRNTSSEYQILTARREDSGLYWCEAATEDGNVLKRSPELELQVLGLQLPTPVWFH

Row | Binder | He/Con_1a
5 | B3 | 102 % of control (GpH7-A5/GpH7-B3/GpL16-k0 = 100)
6 | B4 | 102 % of control (GpH7-A5/GpH7-B3/GpL16-k0 = 100)
7 | B5 | 103 % of control (GpH7-A5/GpH7-B3/GpL16-k0 = 100)
8 | B6 | 102 % of control (GpH7-A5/GpH7-B3/GpL16-k0 = 100)
9 | B7 | 102 % of control (GpH7-A5/GpH7-B3/GpL16-k0 = 100)
10 | B8 | 102 % of control (GpH7-A5/GpH7-B3/GpL16-k0 = 100)
11 | B9 | 103 % of control (GpH7-A5/GpH7-B3/GpL16-k0 = 100)
12 | B10 | 102 % of control (GpH7-A5/GpH7-B3/GpL16-k0 = 100)
13 | B11 | 103 % of control (GpH7-A5/GpH7-B3/GpL16-k0 = 100)
14 | B12 | 103 % of control (GpH7-A5/GpH7-B3/GpL16-k0 = 100)
15 | B13 | 103 % of control (GpH7-A5/GpH7-B3/GpL16-k0 = 100)
16 | B14 | 104 % of control (GpH7-A5/GpH7-B3/GpL16-k0 = 100)
17 | B15 | 104 % of control (GpH7-A5/GpH7-B3/GpL16-k0 = 100)
18 | B16 | 102 % of control (GpH7-A5/GpH7-B3/GpL16-k0 = 100)
19 | B17 | 103 % of control (GpH7-A5/GpH7-B3/GpL16-k0 = 100)
20 | B18 | 104 % of control (GpH7-A5/GpH7-B3/GpL16-k0 = 100)
21 | B19 | 103 % of control (GpH7-A5/GpH7-B3/GpL16-k0 = 100)

biological target: T2, FcγRIIb extracellular domain with …; assay: as above

Row | Binder | He/Con_2b
22 | B3 | 77.5 % of control (GpH7-A5/GpH7-B3/GpL16-k0 = 100)
23 | B4 | 76.8 % of control (GpH7-A5/GpH7-B3/GpL16-k0 = 100)
24 | B5 | 90.2 % of control (GpH7-A5/GpH7-B3/GpL16-k0 = 100)
25 | B6 | 86.5 % of control (GpH7-A5/GpH7-B3/GpL16-k0 = 100)
26 | B7 | 87.6 % of control (GpH7-A5/GpH7-B3/GpL16-k0 = 100)
27 | B8 | 95.4 % of control (GpH7-A5/GpH7-B3/GpL16-k0 = 100)
28 | B9 | 52.3 % of control (GpH7-A5/GpH7-B3/GpL16-k0 = 100)
29 | B10 | 67.9 % of control (GpH7-A5/GpH7-B3/GpL16-k0 = 100)
30 | B11 | 93.3 % of control (GpH7-A5/GpH7-B3/GpL16-k0 = 100)
31 | B12 | 88.6 % of control (GpH7-A5/GpH7-B3/GpL16-k0 = 100)
32 | B13 | 58.1 % of control (GpH7-A5/GpH7-B3/GpL16-k0 = 100)
33 | B14 | 79.7 % of control (GpH7-A5/GpH7-B3/GpL16-k0 = 100)
34 | B15 | 75.7 % of control (GpH7-A5/GpH7-B3/GpL16-k0 = 100)
35 | B16 | 64.7 % of control (GpH7-A5/GpH7-B3/GpL16-k0 = 100)
36 | B17 | 67.5 % of control (GpH7-A5/GpH7-B3/GpL16-k0 = 100)
37 | B18 | 90.4 % of control (GpH7-A5/GpH7-B3/GpL16-k0 = 100)
38 | B19 | 84.3 % of control (GpH7-A5/GpH7-B3/GpL16-k0 = 100)
